Laboratory results: the Human Domainome abundance scans (Beltran et al. 2025)

B1: Ankyrin repeat and SAM domain-containing protein 6, residues 774 to 836; numbered along this chain, Q68DC2 (parent)
chain: DEDELTGILKKLSLEKYQPIFEEQEVDMEAFLTLTDGDLKELGIKTDGSRQQILAAISELNAG

Variants of: B1
Assay: abundance fitness (aPCA) (normalised: wild type 0, dead -1); higher = more abundant; growth selection in yeast, the domain comes from the species named
Details: Homo sapiens

Abundance fitness of substitutions, site by site:
R50: A -0.494, M -0.722, H -0.527, W -0.706, Q -0.621, S -0.524, Y -0.834, V -0.492, N -0.653, I -0.292, C -0.363, G -0.677, T -0.71, L -0.623, P -0.649, E -0.526, K -0.582, F -1
S58: Y -0.466, G 0.034, H -0.114, M -0.205, T -0.064, N 0.118, I -0.533, K 0.157, A 0.045, Q -0.198, R 0.022, F -0.434
A55: Y -0.128, M -0.21, F -0.256, V -0.301, T 0.063, L -0.159, N 0.014, C 0.046, P -0.528, R 0.108, K 0.112, G 0.105, S 0.043, Q -0.022, I -0.203, W -0.386, E 0.031
L54: W -0.813, P -0.311, Q -0.273, K -0.245, S -0.234, A -0.359, R -0.337, G -0.433, D -0.59, Y -0.634, H -0.439, T -0.312, M -0.137, C -0.075, E -0.24, V -0.252, I -0.133, F -0.757
Q52: T -0.2, W -0.805, H -0.155, P -0.715, M -0.302, K -0.095, L -0.132, E 0.079, F -0.667, S -0.105, C -0.12, A -0.04, D 0.112, G -0.279, N -0.193, Y -0.574, I -0.211
S49: T -0.054, W -0.391, V 0.062, Y -0.242, R -0.192, Q -0.03, P -0.208
I53: L -0.002, F -0.432, T -0.345, H -0.481, D -0.33, V -0.104, N -0.451, Q -0.686, E -0.319, S -0.44, C -0.404, M -0.062, W -0.904, R -0.559, A -0.331, P -0.44
I57: F -0.675, M -0.539, G -0.37, E -0.414, K -0.349, Y -0.696, L -0.257, S -0.282, C -0.277, T -0.221, H -0.254, N -0.437, V -0.206, W -0.675, A -0.248, Q -0.116
Q51: P -0.54, Y -0.483, E -0.128, M -0.215, R -0.092, A -0.084, N -0.044, D -0.076, V -0.233, C -0.379, W -0.724, L -0.252, T -0.163, S -0.082, G -0.216
E59: W -0.35, I -0.505, M -0.169, S -0.113, C -0.272, D -0.078, T -0.106, A 0, K 0.02, Q -0.097, N -0.212, P -0.614, V -0.267, H 0.047
A56: I -0.486, K -0.202, T -0.113, N -0.385, E 0.004, L -0.17, G 0.009, W -0.708, V -0.133, F -0.246, S -0.157, H -0.147, C 0.007, M -0.227, D -0.183, P -0.377, Y -0.109
